The source of these data is patent US20100129869.

Common to all, as to test: cell_activity
In one series the test system is ZFN 9075 (engineered). The settings on record: pair with ZFN 9372.
For the next series, the system named is ZFN 9372 (engineered). The settings on record: pair with ZFN 9075.
For another series, the system named is ZFN 8361 (engineered). The following applies: pair with ZFN 8365; CHO cells, Surveyor.
The next series relates to ZFN 9477 (engineered). The settings on record: pair with ZFN 9476; CHO-S GS-/- B3, Surveyor.
The test system of the next series is ZFN 8365 (engineered). The following applies: pair with ZFN 8361; CHO cells, Surveyor.
The test system of a further series is ZFN 12172 (engineered). The following applies: pair with ZFN 12176; CHO clone 1F1.6, Surveyor.
The next series has as its system ZFN 7844 (engineered). The settings on record: pair with ZFN 9461; CHO-S GS-/- B3, Surveyor.
The subject of a further series is ZFN 9461 (engineered). The settings on record: pair with ZFN 7844; CHO-S GS-/- B3, Surveyor.
For another series, the system named is ZFN 12176 (engineered). The following applies: pair with ZFN 12172; CHO clone 1F1.6, Surveyor.
The next series concerns ZFN 9476 (engineered). The following applies: pair with ZFN 9477; CHO-S GS-/- B3, Surveyor.
Setting [1] is: HEK293, CEL-I, also active in K562.
Setting [2] is: wt FokI, CHO-K1, Surveyor, 24% with obligate heterodimer FokI, 25% in CHO-S.

Regarding human GS exon 6 target, the activity with ZFN 9075 (engineered) (setting [1]) and in the series with ZFN 9372 (engineered) (setting [1]) was 21 % NHEJ each time.

Regarding “GTTCCCAGGAATGGGCTTGGGG (double strand) [CHO GS exon 6 ZFN 9372 half-site]”, the activity (% modified chromosomes) in the series with ZFN 9372 (engineered) (setting [2]) turned out to be 26. For “CTGGGTTGATGGTACTGGAGAAGGACTG (double strand) [CHO GS exon 2 ZFN 8361 half-site]”, the activity (% modified chromosomes) in the series on ZFN 8361 (engineered) is 7. For the substance “AGTCCGGGGGGTGGTG (double strand) [CHO DHFR intron 1 ZFN 9477 half-site]”, the activity (% modified alleles) in the series with ZFN 9477 (engineered) amounted to 18. In turn, “TATACATGGCTTGGACTTTCTCACCCTG (double strand) [CHO GS exon 2 ZFN 8365 half-site]” yielded an activity (% modified chromosomes) with ZFN 8365 (engineered) of 7. Consider “AAGGAGGCAAAGACAAAG (double strand) [CHO FUT8 exon 10 ZFN 12172 half-site]”, for which the activity (% modified alleles) in the series on ZFN 12172 (engineered) came out at 7.5. Consider “CCAATGCTCAGGTACT (double strand) [CHO DHFR exon 1 ZFN 7844 half-site]”, for which the activity (% modified alleles) in the series with ZFN 7844 (engineered) turned out to be 15. In the series with ZFN 9075 (engineered) (setting [2]), “GAATGGTGCAGGCTGC (double strand) [CHO GS exon 6 ZFN 9075 half-site]” showed an activity (% modified chromosomes) of 26. “AGGGAAGGTCTCCGTT (double strand) [CHO DHFR exon 1 ZFN 9461 half-site]”: the activity (% modified alleles) in the series on ZFN 9461 (engineered) was determined as 15. For the substance “AAGAAGGGTCATCAG (double strand) [CHO FUT8 exon 10 ZFN 12176 half-site]”, the activity (% modified alleles) in the series on ZFN 12176 (engineered) came to 7.5. On to “CATGGGTAGCCGCTGA (double strand) [CHO DHFR intron 1 ZFN 9476 half-site]”, for which the activity (% modified alleles) in the series on ZFN 9476 (engineered) stood at 18.
